Experimental findings from a protein production outcome set (Wang et al. 2014) are described below.

A short description of this data set: label from the status in PepcDB records.
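Further: failed if final PepcDB status was selected cloned or expressed and not failed if soluble or beyond.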

As for “MDMNTLLSLSWHLMVPEFIILGAAILLSICDLFFKLNHRYVALGAIASVVLAIVSLITLYSEPTGDILNGSFVLDGFSKGFKTLLLGGAALILCIAMSDDKKNPIEDKGEYYYLFLMALLGAMFMASSVDFITLFVGLELLSLSSYILVGIRKKNLTSNEAAMKYVINGGIGTAITLFGMSYLYGITGSTNIVDMQKVFAGELAGGIQLLLALAFLLLLVGLSFKIATVPFHMWAPDVYEGAATPVTAFLGTISKIAGFLLIIRLFLMVFASVSVQGDTQSLYGRMSIYIAVLASITMIIGNVVALKQYNVKRLFAYSGIAHAGYLLVPLVALSPFTMDSMWFYMLAYMLMNIGAFAIIHGLILQSDKENITIFTGLYKRSPFTAIVMTIFILSLAGIPGTAGFIGKINIFLGALHVEPAHYVLASIMMGTTVISFVYYFRILQQMFFRTGEVEEKIRLPLNIKVVMSLCAISIVILGIMPMIGYNFFYEYFPLMKDFFFLGNVVQ”, the protein production result is recorded as “failed”.
As for “MDMSLHFLSQGDLSGVWGRVYWRRRAGFKAIKIQSAFKAYLARKALWAGKCNGWDSSALTKEDIKAIWLRKQEGLKELFLQERRSPHMLEDSLSTPRQRVGLMDSLFVNYKKDGDKVSLWTSFVCENSKINNAKKSSLTTYQHNC”, the entry is “not failed”; as for “MDMVTVTAKTVEEAVTKALIELQTTSDKLTYEIVEKGSAGFLGIGSKPAIIRAKRKETLQDKAIEFLEQVFDAMNMAVDISVEYNETEKEMNVNLKGDDMGILIGKRGQTLDSLQYLVSLVVNKSSSDYIRVKLDTENYRERRKETLETLAKNIAYKVKRTKRSVSLEPMNPYERRIIHAALQNDKYVVTRSDGEEPFRHVIISLKRENRRDRNDRSDRNEK”, “not failed”; as for “MDNANCVGGCKFETRSFQYRRRIPYSLGADPLPPVHPLSLKNLVDIDTDLISSQLYELYDSIILNDSGLERRYAFVQKLEQILKKEFPYKNIKTSLFGSTQSLLASNASDIDLCIITDPPQCAPTTCEVSAAFARNGLKKVVCISTAKVPIVKVWDSELQLSCDCNINKTISTLNTRLMRSYVLCDPRVRPLIVMIKYWAKRRCLNDAAEGGTLTSYTISCMVINFLQKRDPPILPSLQMLPHLQDSSTMTDGLDVSFFDDPDLVHGFGDKNEESLGILFVEFFRFFGYLFDYEHFVLSIRHGTFLSKRAKGWQFQLNNFLCVEEPFHTSRNLANTADEITMKGIQLEFRRVFRLLAYNCNVDDACSQFTFPSLTDTSFMDDYVNELQLEIVPGFSHGRDSSDTSCTESPPEPSHFAWAFDPYNATASPYYNQNINSSIDYSSIYSNDVPAIPPNVPYTFVDPYTYACYINNNSYLPPSYMDFYTWYNSPYPKSSHHFDERHGGDRHEKNLSNSRRYSRNKFHKKKQSSGPFQYYPDAFSFTPTDNNSPPSNSSSSEVVSPVSLHSEPVLSTVQAFKS”, “failed”.
Consider “MDNITNESDNLIQIFSHNPLALISCIILGIGLLFTFASRQFILVRVLLGNVSFIKQRILGVIFGIVGALLLLFATGNLNL”, for which the protein production entry was “failed”.
With “MDNLMLNNKIYLEGTVVSELEFSHEMYGEGFYTFNLEVMRLSDSKDLLNITVSERLITTMDLKIGTEIVVEGQLRSYNKFIDGNNKLILTVFARNIEYCEERSKNPNEIFLDGFICKEPVYRTTPFGREIADLLLAVNRSYNKSDYIPTIAWGRNSRFCKTLEVGDNIRIWGRLQSREYQKKISETEVVKKIAYEVSISKMEKVSVESEQNESGEEISLEHHHHHH”, the protein production entry is “failed”.
Turning to “MDNLNVFANEDNQVNGLKRPPPSRVCPRCDSDNTKFCFYNNYSESQPRYFCKNCRRYWTHGGALRNIPVGGSCRKPKRLKVDQSSISEMVSVENQPINHQSFRQTQENNEFVRSFDASSSATVTAVPNHFGYLSELHGVTNLLPIQSFRTMDCLDFGDESFQQGYYDVGSNDLIDNPLINQSIGGYVDNLTSYCINQVEPKLQPRYEHES”, the protein production result is reported as “failed”.
As for “MDNRKRLAYAIIQFLHGQLRHGGLSCDAQESLEVAIQCLETAFGVTLEDSDLALPQTLPEIFEAATSSKQEMPQDPRAPDRTPPSEEDSAEAERLKTEGNEQMKLENFEAAVHLYGKAIELNPANAVYFCNRAAAYSKLGNYVGAVQDCERAIGIDPGYSKAYGRMGLALSSLNKHAEAVAYYKKALELDPDNDTYKSNLKIAELKLREAPSPTGGVGSLDIAGLLNNPHFITMASSLMNSPQLQQLMSGMISGGHNPLGTPGSSPQQSDLASLIQAGQQFAQQMQQQNPEFVEQIRSQVVRSRTPSASHEEQQE”, the entry is “failed”; as for “MDNRSASLHSDIDTVLNNYDYDFAEVEIAVLGNGHINNTYKLTTPEVEFVLQQINHDVFPKTAELSSNAQKINLHLQRQKNIGNYPLSIPQQILSKTGETYSKVGTNYWRLMEFISNSYTLEEVESPEQAALVANAFAEFSCTLSDFPVEELAVIIEDFHDISFRMRQLNEAVENDLQDRLSSCQTLVNFCLDQQDFINHVIDISKKLPLHVTHNDTKINNLLFTEGDTPCAVIDLDTCMPGLLMHDFGDMVRTCCSNLAEDDTNIDAMIIKLDIFSALIQSYQNAFGTKMSALEKDSLIVGTKSVPFSLGTRFLTDYLNGDSYFQVSREKHNLDRAFNQIQLFILLCEAEPELIKLAMQALEHHHHHH”, “failed”; as for “MDNVIKLVPSRWVSESVLMSISGLKKNTIKTARETSWMEGLEYKHVAPDGQPYDNSMCFYNRDEIDKWIERQPAAISRKKSA”, “failed”.
With “MDPDNRVRQRAVKTLGKRGNPDVLEDLMEALKDSRQPVQEAASEALRKIIAASDSVPVLVKALDATDRNVRKAAIEALWKAGTPEAIPPLLRELDDADWYLRSRAADALADIASPEAALGLIKVMDIHDSPVKKIIVNALGKIGTVEAVEGLVKALEDLEHHHHHH”, the protein production entry is “not failed”.
On to “MDPITHGALGAACAQAALGKYDKRIPWQAGALAGMAPDLDVFIRFSQEPLSLEQWHRYLTHSLMFIPIGGLIVALFLLCFSQYRQYWKITIGASLVGYATHCLLDSLTSYGTVLFWPWSDSRISWDIISIIDPVFTLPLLLGTAWSVIYQNQKAVIASLFFCILFLIFNTILHNRAVDGIHQYATTNNFKINHPRALPKLASSTYWRIIAKQQDCLIIAEAKTSLFYPTTIRLIRQALSFNESMIPFALSSGQKSDLATFHWFTDGFLIVANKNPLILADARYTIDDNPIFSLWGIEILPGQEHINKLSLPKINEYCESPDSERYKEDGLN”, for which the protein production result is listed as “failed”.
In the case of “MDPKHKKLLRTQRLFLSEELLVDDLIIQYLYQEEILTESHLEEIQSESSSRNKTLKLLDILPSRGATAFHHFIKSLEKDFPWIRDKLLQLNEEEESPPPPFTVQCGVPDHILLTVPTTLHLNQLASRLGSEWKSVLLDLGLSCADLYRCCSDHPLAVQSQVLAGLVMWTQRNGRGATVQRLIQSLQAADVPPSVLQQVFK”, the protein production entry is reported as “failed”.
As to “MDPSEYPFDIKAYKRQSEIEEMYIINRFRERRNKIGEDYPPHLSNSDNYFTQRYDAAKKEGISPLPKYTTTMRMFAYGVAADAVDEYSKIGGTTTLECLRRFCKGIIKLYETEYLRAPTQDDLQRILRVSEMRGFPGIIGSINCMQWEWKTCPTVWEGNTTRVNFFVSQHPYNIAYYLADGIYPSYPTFVKSIRLPQSEPDKLFVQRQEACHKDIERAFGVLQARFKIIRKPAGLWDIFELAIIMRSCKWVEYTTTILDPSATPICKSCA”, the protein production entry was “failed”.
The value for “MDPTEMRYLEEENGAMMKTFKDAVTGFATGKTSLVFIGVEQLVQNFRAKRDFFNGAHITMTKVARTHY” was “failed”.
As to “MDQCYFENSLSTECIIRSASRSDGCQMPKLFCQNLPPPLPPKKYAITSVPQSEKSESTPDVKLTEVFKATSHLPKHSLSTASEPSLEVSTHMNDERHKETFQVRECFGNTPNCPSSSSTNDFQANSGAIDAFCQPELDSISTCPNETVSLTTYFSVDSCMTDTYRLKYHQRPKLSFPESSGFCNNSLS”, the protein production entry is on record as “failed”.
As to “MDQKEAPSFTEASVHDPSVIKVEDTFYVFGSHLAAAKTEDLRNWTQIATHVHEGNPLIPNVFVELAEAFEWANSNTLWAADVIQLEDGRFYMYYNACQGDAPRSALGVAVADDIEGPYENLGVFLKSGMWGEESPDGTIYDANVHPNAIDPHVFFDEEGKLWMVYGSYSGGIFILEMDPDTGFPLPGQGYGTHLMGGNHSRIEAPYIHYDKETEYYYLYVTFGGLDSTGGYNMRVARSKQPDGPYVDGEGHLMSEVRGAPGTLFDDASIEPYGVKQMGNFLFKRELGERGTGYVSPGHNSVYYDDEVDKIFLFFHTRFPERGEAHEIRVHQMFMNRKGWPVIAPYRYLEHHHHHH”, the protein production result was “failed”.
Consider “MDQTIHHQIQQALHFRTAVRVYKEEKISDEDLALILDAAWLSPSSIGLEGWRFVVLDNKPIKEEIKPFAWGAQYQLETASHFILLIAEKHARYDSPAIKNSLLRRGIKEGDGLNSRLKLYESFQKEDMDMADNPRALFDWTAKQTYIALGNMMMTAALLGIDTCPIEGFHYDKVNHILAKHNVIDLEKEGIASMLSLGYRLRDPKHAQVRKPKEEVISVVK”, for which the protein production entry is recorded as “not failed”.
On to “MDRAAFPDCCVFLFGFFRRDFGAAGLYGMHDAGLLTGVQLVVAAITLTLFMLCIAQFMMTVKERGFKMALAISGFIFPSALLAGFIVNTLMTALRVKL”, for which the protein production entry is reported as “failed”.
In the case of “MDRATEPVLFFFMAFFWALNYVMVKFAYAYDLSSSILLMRVLYASIFSSLIFIRQIKLPKSPLEHLKVFILANLNITGFFSLWFFGETGVSAAVTSIVIYSYPILATAFSYLFLGDRFGAMKTLGLILGFAGLVIIFIRSINVENLVDLIMLLVAAISWAIGTVFYRKYLLGYDSAGLNTLQLLYALPVVLLISLFTGGINIGLLQLKFNLIMIYMGSFGTAIAYFIYLYLYRKYKVSSISAYFFLVPAISVVLAAVLLKEPISALTIAGFAVMSAGIFLSGSFK”, the protein production result is recorded as “failed”.
The value for “MDRFDAMRAFARVVETGSFTKAADTLHMSKTSVTQLVQQLEARLRVRLLNRTTRKVNATADGAAYYERVRQLLADLEDAETSLSGASATPGGRLRVDVPSPFASTILVPALPAFQARYPDILLHLGVSDREVDLIDENVDCVIRGGQIGNLSLAARHVGDLQLGVYASPGYLARAGVPAHPRELQDAQHRIIGFSWSRARRLFPCAMRRRADERIEVAGRHALLLDEGNAYLAAGLAAMGVIGVPTYMAEAHVERGALIRLFGDWRLDPMPLYIAYPQNRHVSAKLRVFIDWIVELMARHAPVTDAPPPHRSARMPGGPAAIPTDITGA” was “failed”; that for “MDRIVEIEKYSFDETYETSLRPSNFDGYIGQESIKKNLNVFIAAAKKRNECLDHILFSGPAGLGKTTLANIISYEMSANIKTTAAPMIEKSGDLAAILTNLSEGDILFIDEIHRLSPAIEEVLYPAMEDYRLDIIIGSGPAAQTIKIDLPKFTLIGATTRAGMLSNPLRDRFGMQFRLEFYKDSELALILQKAALKLNKTCEEKAALEIAKRSRSTPRIALRLLKRVRDFADVNDEEIITEKRANEALNSLGVNELGFDAMDLRYLELLTAAKQKPIGLASIAAALSEDENTIEDVIEPYLLANGYIERTAKGRIASAKSYSALKLNYEKTLFEE” was “not failed”; that for “MDRKLLHLLCSPDTRQPLSLLESKGLEALNKAIASGTVQRADGSIQNQSLHEALITRDRKQVFRIEDSIPVLLPEEAIATIQIANFPDKLEHHHHHH” was “not failed”.
As to “MDRLAHMQMFVAVVEAGSITAAAERMNLAKSAVSRRLAELEAGLGVSLIQRTTRRLNLTESGRTYYARCVAILADVEDAEAEVSQGHGALRGRLKVALPQAFGLLHLAPLIQTFMKRHPDVRLELDFNDRQVDLMQEGFDLAIRIATLADSTLIARRLAAIPHRVVASPGYLARRGTPRAAADLTQHDCLAYSNVRDPGLWSYRDPGGEPGQVRVVVRLAASSGEFLLQAAIADEGLVLLPAFYLHAALRSGQLSEVLADHRWPEPAAYAVYPPTRHLSARAHAFIDFLAGHLGGAGEPPAGDEVAPTLAPNTSAG”, the protein production entry is “failed”.
